Reference: the supplement of paper PMC12636428

Tested on: Saccharomyces cerevisiae
Test: transcriptional activation domain activity (GFP:mCherry ratio, weighted mean of sorted bins, harmonized to initial dataset scale) (arbitrary fluorescence ratio units); higher = stronger transcriptional activation
Settings: beta-estradiol 1 µM; induction time 4 h
Method in brief: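 Barcoded tiles were sequenced after cells were sorted into 8 bins by GFP:mCherry ratio. Before sorting, cultures had been diluted 1:5 into SC with 1 uM beta-estradiol and held for 4 hours at 30 °C. The tiles were fused to an estradiol-inducible synthetic transcription factor and integrated at URA3 in yeast diploids carrying a GFP reporter. Activation activity is the read-weighted mean of bin median fluorescence, averaged over barcodes and linearly mapped onto the initial dataset scale, and tiles under 50 reads were left out.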

Row | Sequence | transcriptional activation domain activity
1 | AAAAAAAAETAADEKPAEEAGEPPAAEPEAAEPAKEEAAPAEEAAAAEAVPAP | 54300
2 | GPASGASKPKRRYVRKRKEPEEGAGVDNAEASSMAPKPKRQRKKKAPMAEARN | 21900
3 | TPSSLLHLFPRVQEFLLFYSIHLSISWVWSCLILFYDVSFTIFSIFIILLLFL | 60300
4 | TGKRKFRSSFLLYLAARWCPLFCVITILVGVDPINRINCQAYVVFAFLFANIS | 52000
5 | SYWLTIQRYGGWFPNRVQSSSTSFSVFLHFSNPFWLHGWWLLCCLLRLASFVL | 79900
6 | PSPRRRRDEDRPRRGGGGFRWKGEERRDRRERPRSPRPEKRRRSKSPRPEKKK | 27500
7 | TGILAVTLWNIFINKYWPKRRALVVIVILLHVLITVNFATNWAFTYSAFIQNG | 49800
8 | RPSLASSTATATATTTRPAADAASTTRAPRASLAPSTKPTTTRPAVAAAATRT | 33500
9 | EEERGEERREGEERVEQGEEGAGGEGDEEGRSAEHGAGGELAERRGEAGDAEV | 22900
10 | SRLTHVLLCYRQSLLVTVYSHLLLLDQSSQVWWRWMSIFFTLIMWSIELLISS | 57600
11 | MTSRLHIICHICVFYGYILMFQAITSYHYFILLCILILILYLLTFILAHFYKY | 36800
12 | KQYCVRPNSGRIEPGKSVEVTVLLQAMKAEPPMDAKCRDKFLVQSVAVTADKE | 33600
13 | AVAALVGVGFGLSGYFLVCNVYPILSSADSKSLCLLVLVLLALSFKVLFFNYY | 48300
14 | NSTIHNLLELVLLPELCGFCCFSMRFVVMIDLIGTLTLPSSVVYLVYLIYVVI | 56700
15 | SGTSLFLFYFYFIFILILISIITFFFLFLIFFFIILFLLLLFFSYPSGIRPGW | 26900
16 | SRRAHSSDRDEARSARRRGRDRSRSRNRSRSWSRHRHRHRSHSRDAPAAAAAR | 22600
17 | LCNVLRLYFYLLYFIFYRNLFARLRDVEQFAMIQIASSVWVTILYPMRMTRPV | 72900
18 | PPPPPPPPPPGRGGAGHPPPPPPPPPPPAGGGGGPPPPPPPPPPSGGAPPPPP | < 6570
19 | DDSAASHAESKEARDGANEADTSSTGGEADSALKESNTKAERRQDKKEEEASG | 34100
20 | MFCWLCYFLPFISFGFPLIYPSSVGILLWIVISGLCVFIFTLKMFLVFLLLFF | 46100
21 | YFEIAGLTFFFYWYFYLLVGGIDCAWNKFVYVMVSHMSTMIVHVQITLSHFAM | 32700
22 | VLKALWSFAYTFGLFIFCNGSIYYFVARIFGSYYRVLDSPIVGFRWSNIHLFL | 57100
23 | SFCVRHKFMWPLFRTRFIPCPVVSLIVLPTLFIVAYLPQVAFLAIFQGNLAWF | 58000
24 | SEEETSRSRSSKKHAISSGSDSDRDSRKVRKSRHSSSDEERYQKSHKSSSRRR | 52400
25 | PFCMVNAKTVTLRMIESIHKLRRVLVRSEDEIIRLISPVSAKVLCTCLPLFEM | 60400

Row | Sequence | transcriptional activation domain activity
26 | YQKLLVDARQAAEMFFKMLHYELWTHLLERLLRLRQMCNHWSLCKKKGMENCR | 54300
27 | YINCGIKMFDPSSIITRRYIRMWPRKQANRVLGMLDKMSQSGGFTKVFFRLLY | 58000
28 | YAVPNDFVVTGGLLLLRYDRLNELPLGTRANSSVLVCVYRTWIALMRYLLAGP | 62800
29 | MVPFSYVWEFYFFLMSMGGLGFHIFGLGHIFLFTSHIISFFIIGYWCCLICTK | 57200
30 | SWLRGYEVFKLQVSSTMIKCLRGMLCFIPVVCLGPNIVLLLGLPIQTQVKWFL | 61100
31 | MYVCVYIFGCYLFGFMIFVYFFPIYFFNSLFSCSYFFFLLIYSFILFIYSVAA | 44800
32 | LNWYFLGTFMYFLYGESIIYYFKHVLLVDRILLPLATHHRFISFMLYIIGFVF | 74300
33 | YGALGDNTVTLRRPDDSDIVVLFDDMVVHAWIKMLIVAKLICCVILRRTAALG | 46500
34 | SLLLNDFSELRNGYFTSLFSLSLFLFLFAMPWTLTDITPFLMVLLFYHILFFI | 69600
35 | GLVSLDRLLVNRFGEALLSMGRAPTWSWKRALRAVLLSLVELSARCEFKLGSN | 48400
36 | EVKAESKPESKVEPKTEAKPEPKAEPKSEPKVEPKKSESSKKNKKKKAKKAAA | 33700
37 | SSAAAGSSGNASRAAMDVDGEVDADADENRRRSTRASAGRKKAGSAVKKAGTG | < 6570
38 | PGEVSEAEANGDAPKADDAAAPESGEAAKPKKKKKKAAKKPKKEGEEGAAAAP | 37700
39 | MYGYCLLFYLFLFSFISLFYFYFYFYILYFLLLILIFFYFTTVLVSFHFILFF | 43400
40 | SSSSRGKGGKEKGKGKVAGEGDGDGEEEQGEQQQQQQTSLVEAVARARDACRL | 27200
41 | LCVFDLLVLTTTAFIQSGVYCAFDWTVSTIEVRGVCVLAVLIATIPIVFIAYA | 31400
42 | FNEFYPSGWPPSYFIVILRMLFLVCGLFFLWSFFFVVFFFCGLLSLLFFILVV | 28500
43 | AEEEVEEEVKEEEEEEAKEEEDANESEPEPAPEPAKKGRGRKAAKAPTPVEDE | 39700
44 | LDKKSGRLIKHSLCFTYKDLELLTRFFKEDHVIHPTIKAYVLAACTVLFHLLL | 62500
45 | MARCYRLVMCFPFSLCFEYSALILTCSFFSPFIPFRLWCHAVPCGSGVFLFLH | 65700
46 | EGEGAADPAAGAGAGAEEDGEEEEDEGAADPAAGAGAGDEEGEGAAEEGAAES | 17600
47 | LLLPFVVRRFGCWVCGFYLVLLFFIFPLLLYVVLSSCFSILFTSPFIFYFSSF | 61200
48 | TQAGPSTGGGVFGQPSQPSTSTNAFGGGNGLFGSKPTTGFGTATTPAAGVPAP | 53600
49 | AGAAAASTAAEADGEKDGEEGETKPAAPAKKPRKARAKKQVKSEEKAVEEATG | 19300
50 | SLHKIHLVYRDVLRDKLRASVGCSRIRKILRSPPLYPTWMRCLFAFICASIIC | 57600

Row | Sequence | transcriptional activation domain activity
51 | ILQCIQYFANFRRDSAWMKLIVWLLFLSFPGLFGLLPHFFVYRFLDTLHVLLI | 68900
52 | APAQPAATGGGLFGSGATGTTGGFGSNTAGGFGTGGGFGAKPAFGATPSTTGG | 15600
53 | IVKGTDAQQLAQIVVANLFCAILMRQDYVINAFFNFFCSVPTSWPLAIRRVCA | 53100
54 | PKRRLGVAVTWTGLTLLLLLLLLLLPSLIILPSFAACFWYIYWGILRISFFFY | 26100
55 | MLFFFCPIYLKLLIFFLCIVRSICQIFVFAYYLHRIYGVVCFSLLFFSKIQLR | 58200
56 | AYPTAAAVAPSTPKGKQRDVADELADLSVSKSSGSASKAKAKGSSPAAAKAAA | 14900
57 | MSLLLCFRVLIFIYPLRVSFLVCSWLYILLFYMSLFHSSVICPHVKMNLFISL | 43900
58 | SASEIRVDSFRKIMSIPLAIFTLRPRHVFVAVRRVCRSCTNYLVVLALYMALF | 51800
59 | ETIHGPAPATSFDDTNFTWQLFDESPGFDPLAQLQSFSDFGLSGHDLLFGFMD | 123000
60 | QGAAKAVFEPHFSQKDDEGNIIKKKFAVACRVRNCTKLDRMTVISALAAAVGQ | 46500
61 | DDLLVCVAQVVDICYSVFFWFPGIQFQPRPPPLPPIINLWASNILMYTILWIS | 60700
62 | NLRLMIVNFRKYGVLICIRCHDYRRQDVVYGLLLYLLVPCHLFVAYLIELAAA | 47800
63 | IELRARVFNYSNMHALKRCTFRLNRFETAFNFKLLWLFFVYYTRGIEVNRRNL | 58600
64 | DFWFFLFVYYGFYNLVGLLWITKVFNMYGLNWWPVRLGFPATFTLFNCLSLAC | 65500
65 | FYFFFLLSLFSSSSPPLIFLALPLPFSISLTVSNPLAFPVAFFPLFSLSSLLN | 65800
66 | LVLQTDFLLMVERVDVCLEFLEAHRDFREVEIYLLRFQQCLTRAMTLIKMFFV | 51900
67 | KSKQKERERKRARAKANEKAKAEARKRKTKDGEKKEKRKQKEREKAKGKGKER | 55000
68 | AQLLRLAHIHQIRHMVHIFSPVWYRPAVIYCFIAICFIVVLNIQALLSIVWSS | 45900
69 | LDFLDLWTFWPWTFWPWTFWTVGLFGLLALDLLALDFLDLWTFWPWTFWPWTF | 60400
70 | CIIIVFIIRFLVLDLIGMFVCIYWVSFLFYFILFYFISRMVLHRVFFFFSFLI | 49700
71 | IVEGLLGVDFIWQDNLPDLIDQFTNLLTLGLDFQAIDFHGGLSWNYLPSTFIN | 63500
72 | SLTQLIWYLLRRRPFTVLQLNHLFGLPDPLRILHLASSRRLWNAIPVITIATL | 54600
73 | MRTPSTSPFDFCFFFAFSFLLLCWPVIPFILLFYILKFLWTYPFVFCVLYFIE | 37600
74 | MVGRGCAVQVMIYPLFFVPGFLGFGFLVCYHFPFFMSLLWVLAWLRFWLVISS | 64400
